Reference: US20090233993A1, “COMPOSITIONS AND METHODS FOR INHIBITING GSK3 ACTIVITY AND USES THEREOF” (Burnham Institute for Medical Research, priority 2008, published 2009)
“Also recorded” adds a separate entry of the source.

Tested on: Aβ generation
Experiment: Aβ generation / APP processing in HeLaSwe cells expressing FG01 (Western blot, ELISA)
Type: cell-based, human
Procedure: Expression of secreted Aβ, sAPPα, β-CTF, total APP, α-tubulin and FG01 were detected by Western blots.
HeLa/swe cells were transfected with GSK-3β and/or FG01 as indicated. The levels of Aβ40/42 were determined by modified ELISA. The expression of GSK-3β and β-catenin were shown by Western blots. n=4.
HeLaSwe cells were transfected with FG01 or controls. Conditioned media and lysates from these cells were collected. The levels of Aβ40 and Aβ42 were quantified using ELISA kits (Invitrogen), following the manufacturer's protocols.
To corroborate this, FG01 was over expressed in N2aSwe cells.

[1] = ELISA, HeLaSwe cells, FG01 expression

B1: FG01: 141 amino acid transmembrane protein encoded by mouse retrogene fg01 (SEQ ID NO:2); expressed from transfected vector or transgene (protein)
chain: MQSQQRNIGYFNHLKADSRNITYSMTFSTKSSNQNFIIFLNEVQAAIIGHERCDLLPVLNELHPDALPDGRIWLFGLNPYFFQHNSLCMRGTPKRIGLQGCAQVGFLVLFVMPLLIPSVTAELPGSSETTTLAHLAGATGP
modifications: Myc and His6 tags; homo sapien
notes: expressed from transfected vector or transgene
Aβ40 level [1]: significantly reduced
Aβ42 level [1]: significantly reduced
effects of overexpression of GSK-3β on Aβ production (HeLa/swe cells transfected with GSK-3β and/or FG01, Aβ40/42 ELISA): suppressed
Aβ levels / Aβ generation (mouse FG01 expressed in HeLa cells with APP Swedish mutant): decreases; also recorded: reduced Aβ generation
accumulation of sAPPα (mouse FG01 in HeLaSwe cells): increased accumulation
accumulation of βCTF (mouse FG01 in HeLaSwe cells): increased accumulation
